# Laboratory results: patent US6916917B1, “Chimeric pro-caspases and methods of using same” (California Institute of Technology, priority 1998, dated 2005)
# Biological target: T1, pro-caspase-8 (Homo sapiens, UniProt P62942+Q14790)
# T1 construct: in vitro translated, ^35S-labeled Fkp3-Casp8(206); made in house; host or cells: cell-free in vitro transcription/translation, TNT Reticulocyte Lysate System (Promega)
# Experiment: Cell-free processing of pro-caspase-8 (in vitro translated, 35S-labeled, SDS-PAGE autoradiography)
# Assay type: biochemical
# Conditions: AP1510 100 nM; FK506 100 nM; Z-DEVD 10 μM
# Experimental: In vitro transcription and translation of the indicated constructs with ^35S-labeled methionine were carried out with the TNT Reticulocyte Lysate System (Promega; Madison Wis.). The reaction mixture contained 1 μl of the in vitro translation product and the indicated drugs dissolved in 3 μl of CED3 reaction buffer (Xue et al., Genes Devel. 10:1073-1083 (1996), which is incorporated herein by reference). Final drug concentrations of 100 nM of AP1510 or FK506 and 10 μM of Z-Asp-Glu-Val-Asp(SEQ ID NO:1)(Z-DEVD; Enzyme System Products; Calif.) were used. The reaction mixture was incubated in 30° C. for 4 hr, then the reaction stopped by the addition of SDS sample buffer. Reaction products were visualized by SDS-PAGE and autoradiography.
# T1 sequence (P62942+Q14790 fused): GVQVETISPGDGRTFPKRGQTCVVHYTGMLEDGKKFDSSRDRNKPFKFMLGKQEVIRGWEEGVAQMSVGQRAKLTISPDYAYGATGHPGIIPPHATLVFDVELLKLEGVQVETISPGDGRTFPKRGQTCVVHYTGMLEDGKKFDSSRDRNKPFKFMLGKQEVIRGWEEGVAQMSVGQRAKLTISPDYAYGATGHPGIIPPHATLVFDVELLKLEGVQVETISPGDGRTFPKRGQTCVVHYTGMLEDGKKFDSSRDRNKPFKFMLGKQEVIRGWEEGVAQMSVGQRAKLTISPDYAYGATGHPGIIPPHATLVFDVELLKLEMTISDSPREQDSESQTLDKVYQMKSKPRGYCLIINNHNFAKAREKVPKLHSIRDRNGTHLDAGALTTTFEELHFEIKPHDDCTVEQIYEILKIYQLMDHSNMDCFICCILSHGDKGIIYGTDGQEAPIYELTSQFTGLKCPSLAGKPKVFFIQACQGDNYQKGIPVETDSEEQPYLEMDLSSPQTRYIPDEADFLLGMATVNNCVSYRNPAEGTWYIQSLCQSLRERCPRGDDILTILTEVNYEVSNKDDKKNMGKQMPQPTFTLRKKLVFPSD
substance,measurement,value
Z-Asp-Glu-Val-Asp (ZDEVD; N-terminal benzyloxycarbonyl (Z); enzyme used in cell-free processing of Pro-Caspase-8) [z-DEVD],effect on AP1510-initiated cell-free processing of Fkp3-Casp8(206),inhibited
